The record followed here is patent US20160334414A1 (BAXALTA, published 2016).

B2: anti-oxMIF antibody RAM9 (antibody, V domains shown)
VH: EVQLLESGGGLVQPGGSLRLSCAASGFTFSIYSMNWVRQAPGKGLEWVSSIGSSGGTTYYADSVKGRFTISRDNSKNTLYLQMNSLRAEDTAVYYCAGSQWLYGMDVWGQGTTVTVSS
VL: DIQMTQSPSSLSASVGDRVTITCRSSQRIMTYLNWYQQKPGKAPKLLIFVASHSQSGVPSRFRGSGSETDFTLTISGLQPEDSATYYCQQSFWTPLTFGGGTKVEIKR
notes: also called biotinylated RAM9

For experiment [1], the target named is T1, oxMIF in human tissue cryosections (human, UniProt P14174 2-115).
T1 construct: also called oxidized MIF
The experiment can be described thus: IHC on pancreas cryosections, 68-1 without the primary antibody RAM9. The procedure: (§1) The slides were prepared according to state of the art techniques known to experts, either fresh frozen or OCT embedded, sectioned at 10 μm and stored at <=−80° C. after sectioning. All following steps were done at ambient temperature. The cryo-sections were air dried for 30 min and unspecific binding was blocked with blocking buffer (BB: 20% Normal Goat Serum/2% Bovine Serum Albumin/0.2% Fish Gelatine in TBS) for 15 min. The sections were then incubated without primary antibody or with anti-oxMIF antibody RAM9 in primary antibody dilution buffer (PADB: 2% Bovine Serum Albumin/0.2% Fish Gelatine in TBS) at a concentration of 2 μg/ml for 60 min. After washing in TBS, the specimen was fixed in 4% PBS buffered formaldehyde for 20 min. Excess formaldehyde was removed by washing in TBS for 5-10 min, Endogenous peroxidases were blocked by incubating the tissue sections in 0.3% H₂O₂ in methanol for 20 min. Excess methanol/H₂O₂ was removed by washing in TBS for 5-10 min. Detection of was done by incubating the tissue sections with anti-idiotypic rabbit monoclonal antibodies (68-1) diluted in PADS at 1 μg/ml for 30 min. Excess detection antibody was removed by washing in TBS for 5-10 min. The staining was done using SignalStain® Boost IHC Detection Reagent Rabbit for 30 min. Then the sections were extensively washed again 10 min in TBS. […]

For experiment [2], the target named is B2. In words: secondary screening (neutralising) ELISA with finally purified antibody: inhibition of biotinylated RAM9 binding to coated human MIF, % recovery; the number stands in paragraph 159 without a unit, ng/ml is from the axis log c (ng/ml) of the figure. The procedure:
Microplates were coated with human MIF (10 μg/ml PBS, 100 μl/well) and blocked with 250 μl 1.5% fish gelatin in PBS. Washing steps (4×250 μl of PBS per well) were included between the incubations. The samples were serially pre-diluted (in 1% fish gelatin/PBS) to 2× final dilution and mixed with an equivalent volume of biotinylated RAM9 (30 ng/ml) (equivalent to a 1:2 dilution, final concentration of RAM9 is therefore 15 ng/ml). These mixtures were allowed to form complexes for 30 min. […] Biotinylated RAM9 captured on the plate was detected using HRP coupled Streptavidin and TMB as chromogenic substrate. The absorbance of each well was related to the absorbance of the standard curve by linear regression and is expressed in ng/ml. The concentration calculated for biotinylated RAM9 in the sample is related to the calculated concentration of biotinylated RAM9 in the negative control (% recovery=(100%/measured concentration of biotinylated RAM9 in the negative control)×measured concentration of RAM9 in the sample). Half maximal binding inhibition (IC₅₀) by anti-RAM9 antibodies is calculated by blotting log concentration of rabbit anti-RAM9 against % recovery and non-linear 4-parameter curve fit with variable slope FIG. 4a.
(In an ELISA, binding on a coated surface is turned into a signal by an enzyme label.)

Experiment [3] addresses T1, oxMIF in human tissue cryosections. The experiment can be described thus: IHC on infiltrating ductal carcinoma of the pancreas, RAM9 detected by rabbit anti-RAM9 54-5 or 68-1. The procedure: as §1

T1 sequence (P14174 2-115 limits assumed): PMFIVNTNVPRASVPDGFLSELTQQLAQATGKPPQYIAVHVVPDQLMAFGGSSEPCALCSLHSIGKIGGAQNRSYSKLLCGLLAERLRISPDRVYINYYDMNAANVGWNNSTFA

B1: monoclonal rabbit anti-RAM9 idiotypic antibody 68-1 (antibody, V domains shown)
VH: QEQLKESGGRLVKPGGTLTLTCKASGMDFNNYYYMAWVRQAPGKGLEWIGYISGGGSPYYASWAKGRFTISRTSTTVDLKMTSLTTEDTATYFCGRYTDINNGIDLWGPGTLVTVSS
VL: DIVMTQTPSSVSEPVGGTVTINCQASENIYSNLAWYQQKPGQPPKLLIYLASSLTSGVPSRFKGSGSGTEFTLTISDLECADAAIYYCQNNYGDVRYGRNAFGGGTEVVVKG
notes: Rabbit IgG; also called anti-RAM9-68-1; Clone 68-1
A word on the IC50: it is the midpoint of a concentration-inhibition curve. With B1, in experiment [1], the binding result is given as “no binding (tested: 1 µg/ml)”. The IC50 in experiment [2] was 0.0296 µg/mL. In the case of B2, in experiment [3], the binding result is “binds”.

B3: monoclonal rabbit anti-RAM9 idiotypic antibody 54-5 (antibody, V domains shown)
VH: QSLEESGGDLVKPGASLTLTCTASGFSFSSGYDMCWVRQAPGKGLEWIACIYDGDVRTYYASWAKGRFTISRTSSTTMTLQMTGLTAADTATYLCARGASGYLSALYLWGPGTLVTVSS
VL: DVVMTQTPASVSEPVGGTVTIKCQASFTITSNLAWYQQKPGQPPKLLIYGASNLASGVSSRFRGSGFGTEFTLTISDLECADAATYYCQCAAVLSSWTFGGGTEVVVKG
notes: Rabbit IgG; also called anti-RAM9-54-5; Clone 54-5
The molecule B3 returned an IC50 in experiment [2] of 0.00596 µg/mL.
